{
  "source": "patent US20250353911A1",
  "about": "(INHIBRX BIOSCIENCES, published 2025)",
  "binders": {"B1": {"name": "4A01-NNT-hFc (Fc fusion)", "chain": "QVQLQESGGGLVQPGGSLRLSCAASGFAFSTSGMVWVRQATGKGLEWVSTISDDSRIIRYADSVNGRFTISRDNAENTLYLLMNSLKPEDTAVYYCATYRAGSRIGSYEDYYRGQGTQVTVSSGGPSVFLFPPKPKDTLMISRTPEVTCVVVDVSHEDPEVKFNWYVDGVEVHNAKTKPREEQYNSTYRVVSVLTVLHQDWLNGKEYKCKVSNKALPAPIEKTISKAKGQPREPQVYTLPPSRDELTKNQVNLTCLVKGFYPSDIAVEWESNGQPENNYKTTPPVLDSDGSFFLNSTLTVDKSRWQQGNVFSCSVMHEALHNHYTQKSLSLSPG", "notes": "Monomeric sdAb-Fc fusion (Fc S364N, Y407N, K409T = NNT); also called 1m4A01; anti-albumin sdAb 4A01"}},
  "key": {"Rat serum albumin (RSA) [1]": {"target": "T1, Rat serum albumin (RSA) (rat, UniProt P02770 25-608)", "T1 construct": "Bought protein (Sigma); also called rat albumin", "T1 sequence (P02770 25-608)": "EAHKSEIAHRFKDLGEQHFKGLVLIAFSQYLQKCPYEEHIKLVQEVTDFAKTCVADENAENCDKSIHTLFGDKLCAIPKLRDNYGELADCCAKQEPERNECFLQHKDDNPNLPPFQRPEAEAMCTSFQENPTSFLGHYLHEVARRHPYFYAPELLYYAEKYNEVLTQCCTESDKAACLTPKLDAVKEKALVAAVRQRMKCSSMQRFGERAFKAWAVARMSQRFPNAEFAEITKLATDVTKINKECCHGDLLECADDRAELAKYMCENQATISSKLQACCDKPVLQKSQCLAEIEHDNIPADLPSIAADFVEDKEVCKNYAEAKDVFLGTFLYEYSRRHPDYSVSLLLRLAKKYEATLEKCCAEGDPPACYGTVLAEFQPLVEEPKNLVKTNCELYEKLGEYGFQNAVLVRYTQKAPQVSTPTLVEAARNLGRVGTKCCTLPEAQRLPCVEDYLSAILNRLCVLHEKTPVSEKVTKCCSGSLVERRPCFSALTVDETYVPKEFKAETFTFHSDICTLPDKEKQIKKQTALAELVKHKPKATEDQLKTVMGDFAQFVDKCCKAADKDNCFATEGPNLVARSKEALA", "test": "ELISA on coated rat albumin, anti-human Fc HRP, A650, one site-total binding fit", "procedure": "(§1) Medisorp plates were coated with albumin protein at 2 μg/ml, 50 μl/well at 4° C. overnight (human, murine, and rat albumin-Sigma, cynomolgus monkey albumin-Abcam). 1× Fish Gelatin (blocking agent, Bethyl Laboratories) was added to albumin-coated wells followed by a 1 hour incubation at RT. Titrations of sdAb fusion proteins (starting at 100 nM, across 1:3 or down 1:4) were added and incubated for 1 hour at RT. Plates were washed 3 times with 0.1% D-PBST, and then anti-human Fc HRP antibody (1:2000 in 0.1% D-PBST, Jackson) was added and incubated for 30 minutes at RT. Plates were washed 3 times with 0.1% D-PBST, and then TMB substrate was added. Absorbance at 650 nm was read on a plate reader (Molecular Devices) and data were plotted using equation one site-total binding (Model: Y=Bmax*X/(Kd+X)+NS*X+Background, GraphPad Prism)."}, "Rat serum albumin (RSA) [2]": {"target": "T1, Rat serum albumin (RSA)", "test": "ELISA on coated rat albumin, anti-human Fc HRP, A650, one site-total binding fit", "remark": "listed apart in the source", "procedure": "as §1"}, "[3]": {"target": "T2, Human serum albumin (HSA) (human, UniProt P02768 25-609)", "T2 construct": "also called human albumin; recombinant human albumin", "T2 sequence (P02768 25-609)": "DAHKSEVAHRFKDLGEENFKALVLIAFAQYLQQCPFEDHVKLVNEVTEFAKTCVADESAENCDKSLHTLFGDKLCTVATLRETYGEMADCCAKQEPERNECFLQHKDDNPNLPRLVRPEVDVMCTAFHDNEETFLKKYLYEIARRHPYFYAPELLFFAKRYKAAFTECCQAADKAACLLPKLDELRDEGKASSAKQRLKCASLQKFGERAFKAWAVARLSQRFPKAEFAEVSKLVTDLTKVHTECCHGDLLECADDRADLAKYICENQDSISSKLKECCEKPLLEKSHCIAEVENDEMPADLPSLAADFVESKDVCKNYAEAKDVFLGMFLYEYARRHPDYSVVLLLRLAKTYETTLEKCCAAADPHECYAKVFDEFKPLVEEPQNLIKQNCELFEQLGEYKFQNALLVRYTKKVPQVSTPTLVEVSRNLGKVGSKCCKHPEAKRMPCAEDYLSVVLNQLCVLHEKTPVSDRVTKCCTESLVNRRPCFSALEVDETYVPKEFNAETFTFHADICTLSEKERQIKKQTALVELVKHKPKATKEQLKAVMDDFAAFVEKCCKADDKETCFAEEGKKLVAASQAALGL", "test": "ELISA on coated human albumin, anti-human Fc HRP, A650, one site-total binding fit", "procedure": "as §1"}, "[4]": {"target": "T2, Human serum albumin (HSA)", "test": "ELISA on coated human albumin, anti-human Fc HRP, A650, one site-total binding fit", "remark": "listed apart in the source", "procedure": "as §1"}, "[5]": {"target": "T3, Murine serum albumin (MSA) (mouse, UniProt P07724 25-608)", "T3 construct": "Bought protein (Sigma); also called murine albumin; mouse albumin", "test": "ELISA on coated murine albumin, anti-human Fc HRP, A650, one site-total binding fit", "procedure": "as §1"}, "[6]": {"target": "T3, Murine serum albumin (MSA)", "test": "ELISA on coated murine albumin, anti-human Fc HRP, A650, one site-total binding fit", "remark": "listed apart in the source", "procedure": "as §1"}, "[7]": {"target": "T4, Cynomolgus monkey serum albumin (CSA) (cynomolgus monkey, UniProt A2V9Z4 25-608)", "T4 construct": "Bought protein (Abcam); also called cynomolgus monkey albumin", "T4 sequence (A2V9Z4 25-608)": "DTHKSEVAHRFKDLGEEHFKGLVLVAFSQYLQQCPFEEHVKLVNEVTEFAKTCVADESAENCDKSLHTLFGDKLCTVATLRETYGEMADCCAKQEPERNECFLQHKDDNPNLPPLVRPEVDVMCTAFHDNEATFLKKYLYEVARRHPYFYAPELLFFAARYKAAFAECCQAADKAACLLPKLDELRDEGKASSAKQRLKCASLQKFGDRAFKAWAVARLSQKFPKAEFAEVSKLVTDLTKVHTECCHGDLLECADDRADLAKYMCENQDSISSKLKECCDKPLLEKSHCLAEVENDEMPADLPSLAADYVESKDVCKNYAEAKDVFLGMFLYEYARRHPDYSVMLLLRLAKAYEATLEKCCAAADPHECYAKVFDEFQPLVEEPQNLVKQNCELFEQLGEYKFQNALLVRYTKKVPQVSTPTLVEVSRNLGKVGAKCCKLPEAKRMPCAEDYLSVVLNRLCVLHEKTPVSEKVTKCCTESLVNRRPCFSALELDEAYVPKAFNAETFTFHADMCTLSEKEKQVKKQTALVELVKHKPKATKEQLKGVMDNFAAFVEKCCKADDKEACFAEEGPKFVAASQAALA", "test": "ELISA on coated cynomolgus monkey albumin, anti-human Fc HRP, A650, one site-total binding fit", "procedure": "as §1"}, "[8]": {"target": "T4, Cynomolgus monkey serum albumin (CSA)", "test": "ELISA on coated cynomolgus monkey albumin, anti-human Fc HRP, A650, one site-total binding fit", "remark": "listed apart in the source", "procedure": "as §1"}, "[9]": {"target": "T5, Mouse Fc-tagged human albumin domain III (human, UniProt P02768 405-609, limits assumed)", "T5 construct": "also called albumin domain 3 (mouse Fc tagged); albumin domain 3; not shown: mouse Fc tag", "T5 sequence (P02768 405-609 limits assumed)": "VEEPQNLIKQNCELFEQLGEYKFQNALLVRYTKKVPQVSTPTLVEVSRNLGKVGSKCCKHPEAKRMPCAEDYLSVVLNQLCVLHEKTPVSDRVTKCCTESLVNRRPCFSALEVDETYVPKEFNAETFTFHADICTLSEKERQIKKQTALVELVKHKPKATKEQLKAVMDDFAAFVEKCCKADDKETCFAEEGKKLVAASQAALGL", "test": "biolayer interferometry, mouse Fc-tagged human albumin domain III (10 ug/ml) on anti-mouse IgG Fc biosensor, pH 5"}},
  "note": "Where two headings read alike, the source gives them in different places.",
  "data": [
    {"binder": "B1", "values": [
      {"measurement": "Bmax", "setting": "Rat serum albumin (RSA) [1]", "value": 1.24, "unit": "A650"},
      {"measurement": "Kd", "setting": "Rat serum albumin (RSA) [1]", "value": 0.144, "unit": "nM"},
      {"measurement": "Kd", "setting": "Rat serum albumin (RSA) [2]", "value": 0.182, "unit": "nM"},
      {"measurement": "Bmax", "setting": "[3]", "value": 1.34, "unit": "A650"},
      {"measurement": "Kd", "setting": "[3]", "value": 0.105, "unit": "nM"},
      {"measurement": "Kd", "setting": "[4]", "value": 0.171, "unit": "nM"},
      {"measurement": "Bmax", "setting": "[5]", "value": 1.26, "unit": "A650"},
      {"measurement": "Kd", "setting": "[5]", "value": 0.114, "unit": "nM"},
      {"measurement": "Kd", "setting": "[6]", "value": 0.193, "unit": "nM"},
      {"measurement": "Bmax", "setting": "[7]", "value": 1.27, "unit": "A650"},
      {"measurement": "Kd", "setting": "[7]", "value": 0.113, "unit": "nM"},
      {"measurement": "Kd", "setting": "[8]", "value": 0.162, "unit": "nM"},
      {"measurement": "binding result", "setting": "[9]", "value": "no binding"}
    ]}
  ]
}
